B1: Gamma-aminobutyric acid receptor-associated protein (Homo sapiens), O95166 (parent)
chain: MKFVYKEEHPFEKRRSEGEKIRKKYPDRVPVIVEKAPKARIGDLDKKKYLVPSDLTVGQFYFLIRKRIHLRAEDALFFFVNNVIPPTSATMGQLYQEHHEEDFFLYIAYSDESVYGL
partner: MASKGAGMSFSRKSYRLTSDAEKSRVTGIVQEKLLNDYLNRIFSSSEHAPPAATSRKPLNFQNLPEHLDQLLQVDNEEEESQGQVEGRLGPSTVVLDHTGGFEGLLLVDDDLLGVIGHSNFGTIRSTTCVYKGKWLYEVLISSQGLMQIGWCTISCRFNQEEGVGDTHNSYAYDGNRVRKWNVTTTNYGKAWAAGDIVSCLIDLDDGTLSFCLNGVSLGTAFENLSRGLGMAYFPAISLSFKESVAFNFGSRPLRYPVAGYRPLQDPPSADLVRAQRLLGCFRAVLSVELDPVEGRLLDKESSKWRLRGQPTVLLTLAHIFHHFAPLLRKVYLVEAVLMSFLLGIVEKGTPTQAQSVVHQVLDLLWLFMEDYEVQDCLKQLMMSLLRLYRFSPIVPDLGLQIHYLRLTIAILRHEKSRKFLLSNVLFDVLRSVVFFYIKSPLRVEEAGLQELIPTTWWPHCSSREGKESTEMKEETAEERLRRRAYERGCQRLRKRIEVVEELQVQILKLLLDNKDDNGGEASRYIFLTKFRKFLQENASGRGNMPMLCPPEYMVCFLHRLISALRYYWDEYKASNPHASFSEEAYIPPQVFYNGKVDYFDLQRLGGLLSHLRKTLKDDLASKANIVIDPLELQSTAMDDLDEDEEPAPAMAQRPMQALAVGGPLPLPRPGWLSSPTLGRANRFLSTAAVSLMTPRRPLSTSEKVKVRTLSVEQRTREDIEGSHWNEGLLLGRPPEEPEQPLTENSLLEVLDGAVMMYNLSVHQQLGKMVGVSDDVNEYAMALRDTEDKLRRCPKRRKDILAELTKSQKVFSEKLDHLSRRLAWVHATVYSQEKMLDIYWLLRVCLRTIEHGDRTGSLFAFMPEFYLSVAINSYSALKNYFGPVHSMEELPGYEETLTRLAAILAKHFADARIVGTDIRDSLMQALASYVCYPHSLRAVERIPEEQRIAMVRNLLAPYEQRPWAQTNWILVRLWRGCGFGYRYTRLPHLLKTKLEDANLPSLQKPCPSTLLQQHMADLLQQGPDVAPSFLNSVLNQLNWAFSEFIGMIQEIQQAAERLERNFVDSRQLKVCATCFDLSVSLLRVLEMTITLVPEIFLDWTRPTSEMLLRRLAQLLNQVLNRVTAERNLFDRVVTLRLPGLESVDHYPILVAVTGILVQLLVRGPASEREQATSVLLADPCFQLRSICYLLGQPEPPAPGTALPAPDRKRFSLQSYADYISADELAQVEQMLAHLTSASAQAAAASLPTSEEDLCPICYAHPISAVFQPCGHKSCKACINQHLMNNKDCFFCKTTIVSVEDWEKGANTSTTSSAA
B2: Gamma-aminobutyric acid receptor-associated protein (Homo sapiens), O95166 (parent)
chain: B1 chain
partner: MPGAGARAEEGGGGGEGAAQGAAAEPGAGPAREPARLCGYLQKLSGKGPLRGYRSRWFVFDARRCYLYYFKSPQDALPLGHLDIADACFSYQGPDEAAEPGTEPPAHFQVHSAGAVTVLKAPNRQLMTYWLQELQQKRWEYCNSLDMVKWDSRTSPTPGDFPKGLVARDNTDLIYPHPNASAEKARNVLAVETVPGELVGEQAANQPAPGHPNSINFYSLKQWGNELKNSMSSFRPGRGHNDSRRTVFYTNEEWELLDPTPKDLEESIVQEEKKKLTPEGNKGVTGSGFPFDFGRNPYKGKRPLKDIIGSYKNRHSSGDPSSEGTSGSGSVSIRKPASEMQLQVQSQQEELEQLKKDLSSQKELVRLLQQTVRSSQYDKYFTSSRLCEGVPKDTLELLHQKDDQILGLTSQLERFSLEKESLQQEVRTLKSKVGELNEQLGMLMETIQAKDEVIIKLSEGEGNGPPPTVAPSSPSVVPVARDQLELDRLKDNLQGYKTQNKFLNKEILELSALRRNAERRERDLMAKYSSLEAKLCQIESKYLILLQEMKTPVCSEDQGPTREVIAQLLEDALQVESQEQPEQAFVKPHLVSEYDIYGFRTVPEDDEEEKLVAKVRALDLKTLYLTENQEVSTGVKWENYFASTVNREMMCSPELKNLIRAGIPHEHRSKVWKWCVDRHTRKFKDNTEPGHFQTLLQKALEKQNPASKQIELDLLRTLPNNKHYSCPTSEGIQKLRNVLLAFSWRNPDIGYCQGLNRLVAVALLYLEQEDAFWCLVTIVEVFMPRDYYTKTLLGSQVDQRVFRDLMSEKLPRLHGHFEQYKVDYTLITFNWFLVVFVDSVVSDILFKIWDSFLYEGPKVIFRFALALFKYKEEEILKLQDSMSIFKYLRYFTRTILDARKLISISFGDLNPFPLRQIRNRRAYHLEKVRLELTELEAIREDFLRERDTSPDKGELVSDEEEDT
B3: Gamma-aminobutyric acid receptor-associated protein (Homo sapiens), O95166 (parent)
chain: B1 chain
partner: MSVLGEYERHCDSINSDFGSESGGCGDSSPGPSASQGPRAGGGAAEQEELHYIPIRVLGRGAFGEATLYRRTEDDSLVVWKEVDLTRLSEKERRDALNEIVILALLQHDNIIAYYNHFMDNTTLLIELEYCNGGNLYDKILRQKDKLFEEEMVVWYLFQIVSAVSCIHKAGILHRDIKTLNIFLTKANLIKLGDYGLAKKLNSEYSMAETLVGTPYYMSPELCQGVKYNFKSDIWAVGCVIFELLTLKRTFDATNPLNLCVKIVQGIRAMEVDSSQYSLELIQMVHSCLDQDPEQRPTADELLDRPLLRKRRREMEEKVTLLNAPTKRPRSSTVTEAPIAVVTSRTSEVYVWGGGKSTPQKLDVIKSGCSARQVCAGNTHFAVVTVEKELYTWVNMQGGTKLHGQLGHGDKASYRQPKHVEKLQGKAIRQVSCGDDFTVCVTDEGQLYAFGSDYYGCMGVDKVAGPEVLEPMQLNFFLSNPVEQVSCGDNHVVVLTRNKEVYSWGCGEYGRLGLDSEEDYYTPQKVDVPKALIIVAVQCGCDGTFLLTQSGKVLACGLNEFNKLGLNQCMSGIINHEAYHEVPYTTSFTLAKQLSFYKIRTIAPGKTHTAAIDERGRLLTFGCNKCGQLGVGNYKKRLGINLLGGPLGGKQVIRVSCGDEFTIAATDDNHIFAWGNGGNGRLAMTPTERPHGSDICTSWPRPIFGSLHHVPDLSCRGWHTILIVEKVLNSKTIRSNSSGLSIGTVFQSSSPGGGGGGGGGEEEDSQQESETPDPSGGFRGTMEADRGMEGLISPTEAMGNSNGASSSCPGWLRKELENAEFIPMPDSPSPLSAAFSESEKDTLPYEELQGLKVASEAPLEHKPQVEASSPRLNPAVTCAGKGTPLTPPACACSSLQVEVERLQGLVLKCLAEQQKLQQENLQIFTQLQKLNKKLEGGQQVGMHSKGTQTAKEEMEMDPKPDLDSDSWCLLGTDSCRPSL
B4: Gamma-aminobutyric acid receptor-associated protein (Homo sapiens), O95166 (parent)
chain: B1 chain
partner: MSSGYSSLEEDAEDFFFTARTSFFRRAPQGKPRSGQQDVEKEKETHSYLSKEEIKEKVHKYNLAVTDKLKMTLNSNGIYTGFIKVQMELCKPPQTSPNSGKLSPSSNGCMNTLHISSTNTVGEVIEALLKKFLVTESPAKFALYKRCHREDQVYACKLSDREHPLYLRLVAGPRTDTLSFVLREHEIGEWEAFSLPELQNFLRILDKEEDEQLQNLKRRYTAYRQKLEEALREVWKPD
B5: Gamma-aminobutyric acid receptor-associated protein (Homo sapiens), O95166 (parent)
chain: B1 chain
partner: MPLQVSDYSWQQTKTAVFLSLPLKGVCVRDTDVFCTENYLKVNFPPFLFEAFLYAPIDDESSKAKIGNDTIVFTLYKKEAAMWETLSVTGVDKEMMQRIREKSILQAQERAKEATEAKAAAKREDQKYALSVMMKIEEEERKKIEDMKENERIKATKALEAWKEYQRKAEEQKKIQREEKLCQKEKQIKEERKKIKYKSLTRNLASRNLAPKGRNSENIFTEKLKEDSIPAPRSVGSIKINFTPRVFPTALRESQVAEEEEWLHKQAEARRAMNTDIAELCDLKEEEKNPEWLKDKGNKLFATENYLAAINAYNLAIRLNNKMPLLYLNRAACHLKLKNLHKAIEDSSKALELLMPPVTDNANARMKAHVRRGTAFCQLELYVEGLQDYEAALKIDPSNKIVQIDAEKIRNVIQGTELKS
B6: Gamma-aminobutyric acid receptor-associated protein (Homo sapiens), O95166 (parent)
chain: B1 chain
partner: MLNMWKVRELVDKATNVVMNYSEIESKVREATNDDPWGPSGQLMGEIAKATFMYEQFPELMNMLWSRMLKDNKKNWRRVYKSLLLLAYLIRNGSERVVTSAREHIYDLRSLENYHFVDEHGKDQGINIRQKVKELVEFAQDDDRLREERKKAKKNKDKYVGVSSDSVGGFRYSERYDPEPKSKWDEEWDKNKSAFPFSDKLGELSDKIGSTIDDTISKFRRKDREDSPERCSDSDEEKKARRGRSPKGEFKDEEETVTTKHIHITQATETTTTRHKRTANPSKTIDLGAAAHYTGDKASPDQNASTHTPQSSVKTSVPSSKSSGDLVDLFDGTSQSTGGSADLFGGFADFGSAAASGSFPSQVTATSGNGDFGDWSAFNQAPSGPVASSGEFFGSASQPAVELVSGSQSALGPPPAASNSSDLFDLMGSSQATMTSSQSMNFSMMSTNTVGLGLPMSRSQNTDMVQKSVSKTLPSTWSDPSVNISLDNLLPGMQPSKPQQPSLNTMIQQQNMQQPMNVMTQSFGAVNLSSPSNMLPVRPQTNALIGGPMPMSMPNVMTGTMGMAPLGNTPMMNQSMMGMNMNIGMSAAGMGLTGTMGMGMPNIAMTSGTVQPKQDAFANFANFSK

Variants of: B1
Conditions: with rn123_human RNF123, Q5XPI4

| effect of a mutation on the interaction | Variant |
| --- | --- |
| decreasing interaction | Y49A;L50A |

Variants of: B2
Conditions: with tbd2b_human TBC1D2B

| effect of a mutation on the interaction | Variant |
| --- | --- |
| decreasing interaction | Y49A;L50A |

Variants of: B3
Conditions: with nek9_human NEK9, Q8TD19

| Variant | effect of a mutation on the interaction |
| --- | --- |
| Y49A;L50A | decreasing interaction |

Variants of: B4
Conditions: with rasf3_human RASSF3, Q86WH2

| effect of a mutation on the interaction | Variant |
| --- | --- |
| decreasing interaction | Y49A;L50A |

Variants of: B5
Conditions: with daaf4_human DNAAF4, Q8WXU2

| effect of a mutation on the interaction | Variant |
| --- | --- |
| decreasing interaction | Y49A;L50A |

Variants of: B6
Conditions: with epn4_human CLINT1, Q14677

| effect of a mutation on the interaction | Variant |
| --- | --- |
| decreasing interaction | Y49A;L50A |

— IntAct's records for PubMed 20562859
